Measurements published in patent publication US20100098706A1.

Target: human CD16 receptor (FcgammaRIIIa) (human) (UniProt P08637)
Assay: flow cytometry on NK cells; competition with 3G8-PE; antibody at 50 µg/ml

Chain of human CD16 receptor (FcgammaRIIIa) (human) (P08637 17-254): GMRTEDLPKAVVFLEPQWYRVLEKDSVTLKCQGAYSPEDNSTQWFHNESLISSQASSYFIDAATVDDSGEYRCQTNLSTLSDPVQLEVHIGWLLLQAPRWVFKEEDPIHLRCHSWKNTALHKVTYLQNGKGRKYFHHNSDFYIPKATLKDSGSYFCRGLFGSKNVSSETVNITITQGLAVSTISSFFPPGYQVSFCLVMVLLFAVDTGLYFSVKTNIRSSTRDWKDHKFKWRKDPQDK

- binding percentage (100% = total inhibition of 3G8 binding): 18.5%
Substance: Rituxan® (antibody)
